What was measured:
Human CD3 epsilon = target: T1, Human CD3 epsilon (human, UniProt P07766 23-207); assay: flow cytometry on T cells of healthy human donor 110044049
T1 construct: Stood on human T cells (pan-T cells, isolated donor T cells) as part of the TCR/CD3 complex; the other chains of the complex are not written here; also called CD3ε; CD3R

[1] = target: T2, ectonucleotide pyrophosphatase/phosphodiesterase family member 3 (ENPP3) (human, UniProt O14638 1-875); assay: cell-based or functional assay
T2 sequence (looked up): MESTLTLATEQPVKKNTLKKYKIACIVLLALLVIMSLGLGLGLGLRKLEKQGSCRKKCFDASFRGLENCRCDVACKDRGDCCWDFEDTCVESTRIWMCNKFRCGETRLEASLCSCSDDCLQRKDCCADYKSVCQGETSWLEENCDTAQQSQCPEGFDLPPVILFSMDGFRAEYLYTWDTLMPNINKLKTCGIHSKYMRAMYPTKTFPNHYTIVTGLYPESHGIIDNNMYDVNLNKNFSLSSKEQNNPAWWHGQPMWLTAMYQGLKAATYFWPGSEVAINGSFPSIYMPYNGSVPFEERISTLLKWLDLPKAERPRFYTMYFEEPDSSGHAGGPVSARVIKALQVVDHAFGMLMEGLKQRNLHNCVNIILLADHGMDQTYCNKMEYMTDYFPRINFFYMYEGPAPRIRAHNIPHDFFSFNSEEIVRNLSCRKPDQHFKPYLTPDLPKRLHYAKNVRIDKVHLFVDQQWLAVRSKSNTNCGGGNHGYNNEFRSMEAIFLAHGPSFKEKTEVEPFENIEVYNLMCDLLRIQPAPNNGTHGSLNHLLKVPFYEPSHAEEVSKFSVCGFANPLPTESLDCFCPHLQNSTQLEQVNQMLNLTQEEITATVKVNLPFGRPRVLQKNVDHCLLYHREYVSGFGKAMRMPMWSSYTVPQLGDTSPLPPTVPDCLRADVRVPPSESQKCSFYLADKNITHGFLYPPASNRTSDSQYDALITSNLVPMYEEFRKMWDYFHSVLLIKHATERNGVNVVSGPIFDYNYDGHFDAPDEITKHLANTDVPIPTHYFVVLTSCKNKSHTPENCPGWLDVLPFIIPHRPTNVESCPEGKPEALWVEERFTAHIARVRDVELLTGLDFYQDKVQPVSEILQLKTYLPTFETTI

[2] = target: T2, ectonucleotide …; assay: cell-based or functional assay; remark: listed apart in the source
[3] = target: ectonucleotide pyrophosphatase/phosphodiesterase family member 2 (ENPP2) (human, UniProt Q13822 36-863); assay: flow cytometry on CHOK1 cells overexpressing ENPP2
[4] = target: T2, ectonucleotide …; assay: cell-based or functional assay; remark: listed apart in the source

T1 sequence (P07766 23-207 limits assumed): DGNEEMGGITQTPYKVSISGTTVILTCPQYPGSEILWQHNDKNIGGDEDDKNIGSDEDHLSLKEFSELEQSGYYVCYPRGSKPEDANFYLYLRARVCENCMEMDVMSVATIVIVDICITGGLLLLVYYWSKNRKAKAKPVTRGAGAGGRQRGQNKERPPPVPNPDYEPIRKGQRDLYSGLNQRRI

B1: NPP3B815 (NPP3B56×CD3B2030-N106A-spFv) (bispecific antibody, human IgG1, kappa, L234A L235A)
chain: EIVLTQSPATLSASPGERVTLSCSASSSVSYMNWYQQKPGCAPRRWIYDSSKLASGVPARFSGSGSGRDYTLTISSLEPEDFAVYYCQQWSRNPPTFGGGTKVEIKGGGSGGSGGCPPCGGSGGQVQLVQSGAEVKKPGSSVKVSCKASGYTFTRSTMHWVKQAPGQGLEWIGYINPSSAYTNYNQKFQGRVTLTADKSTSTAYMELSSLRSEDTAVYYCASPQVHYDYAGFPYWGCGTLVTVSSEPKSSDKTHTCPPCPAPEAAGGPSVFLFPPKPKDTLMISRTPEVTCVVVSVSHEDPEVKFNWYVDGVEVHNAKTKPREEQYNSTYRVVSVLTVLHQDWLNGKEYKCKVSNKALPAPIEKTISKAKGQPREPQVYTLPPSREEMTKNQVSLWCLVKGFYPSDIAVEWESNGQPENNYKTTPPVLDSDGSFFLYSKLTVDKSRWQQGNVFSCSVMHEALHNHYTQKSLSLSPGK
heavy: EVQLVESGGGRVKPGGSLRLSCAASGFTFSDYSMNWVRQAPGKGLEWVSSISSISSYVKYADSVKGRFTMSRDNAKNSLFLQMNSLRDEDMAVYYCARGHYFDYWGQGTLVTVSSASTKGPSVFPLAPSSKSTSGGTAALGCLVKDYFPEPVTVSWNSGALTSGVHTFPAVLQSSGLYSLSSVVTVPSSSLGTQTYICNVNHKPSNTKVDKKVEPKSCDKTHTCPPCPAPEAAGGPSVFLFPPKPKDTLMISRTPEVTCVVVSVSHEDPEVKFNWYVDGVEVHNAKTKPREEQYNSTYRVVSVLTVLHQDWLNGKEYKCKVSNKALPAPIEKTISKAKGQPREPQVYTLPPSREEMTKNQVSLSCAVKGFYPSDIAVEWESNGQPENNYKTTPPVLDSDGSFFLVSKLTVDKSRWQQGNVFSCSVMHEALHNRFTQKSLSLSPGK
light: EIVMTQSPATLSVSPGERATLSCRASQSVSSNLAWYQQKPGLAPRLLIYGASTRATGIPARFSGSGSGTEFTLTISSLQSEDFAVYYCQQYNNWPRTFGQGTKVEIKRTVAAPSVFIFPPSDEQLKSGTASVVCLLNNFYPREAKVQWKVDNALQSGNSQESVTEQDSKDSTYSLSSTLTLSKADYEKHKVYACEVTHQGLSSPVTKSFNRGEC
notes: Heavy Chain 1 = anti-CD3 spFv-Fc (knob); Heavy Chain 2 and Light Chain = anti-ENPP3 Fab arm NPP3B56 (hole); IgG1 with L234A, L235A, D265S; also called ENPP3×CD3
- EC50 (Human CD3 epsilon): 188 nM
- killing EC50 with PBMCs, A704, donor 110040278, E:T 3:1 [1]: 0.052 nM
- killing EC50 with PBMCs, A704, donor 110040278, E:T 5:1 [1]: 0.028 nM
- killing EC50 with PBMCs, A704, donor 110042496, E:T 3:1 [1]: 0.097 nM
- killing EC50 with PBMCs, A704, donor 110042496, E:T 5:1 [1]: 0.061 nM
- killing EC50 with PBMCs, A704, donor 110042593, E:T 1:1 [1]: 0.124 nM
- killing EC50 with PBMCs, A704, donor 110042593, E:T 3:1 [1]: 0.039 nM
- killing EC50 with PBMCs, A704, donor 110042593, E:T 5:1 [1]: 0.015 nM
- killing EC50 with PBMCs, A704, donor 110044049, E:T 1:1 [1]: 0.131 nM
- killing EC50 with PBMCs, A704, donor 110044049, E:T 3:1 [1]: 0.052 nM
- killing EC50 with PBMCs, A704, donor 110044049, E:T 5:1 [1]: 0.016 nM
- killing EC50 with PBMCs, A704, donor 110048457, E:T 3:1 [1]: 0.046 nM
- killing EC50 with PBMCs, A704, donor 110048457, E:T 5:1 [1]: 0.013 nM
- killing EC50 with PBMCs, A704, donor 888668965, E:T 1:1 [1]: 0.107 nM
- killing EC50 with PBMCs, A704, donor 888668965, E:T 3:1 [1]: 0.036 nM
- killing EC50 with PBMCs, A704, donor 888668965, E:T 5:1 [1]: 0.015 nM
- killing EC50 with PBMCs, VMRCRCW, donor 110040278, E:T 5:1 [1]: 0.033 nM
- killing EC50 with PBMCs, VMRCRCW, donor 110042496, E:T 5:1 [1]: 0.065 nM
- killing EC50 with PBMCs, VMRCRCW, donor 110042593, E:T 5:1 [1]: 0.033 nM
- killing EC50 with PBMCs, VMRCRCW, donor 110044049, E:T 5:1 [1]: 0.051 nM
- killing EC50 with PBMCs, VMRCRCW, donor 110048457, E:T 5:1 [1]: 0.063 nM
- killing EC50 with PBMCs, VMRCRCW, donor 888668965, E:T 5:1 [1]: 0.062 nM
- killing EC50 @ 72 hrs, A704, T-cell donor 110040278, E:T 1:1 [2]: 0.075 nM
- killing EC50 @ 72 hrs, A704, T-cell donor 110040278, E:T 3:1 [2]: 0.0484 nM
- killing EC50 @ 72 hrs, A704, T-cell donor 110042496, E:T 1:1 [2]: 0.132 nM
- killing EC50 @ 72 hrs, A704, T-cell donor 110042496, E:T 3:1 [2]: 0.0696 nM
- killing EC50 @ 72 hrs, A704, T-cell donor 110042593, E:T 1:1 [2]: 0.114 nM
- killing EC50 @ 72 hrs, A704, T-cell donor 110042593, E:T 3:1 [2]: 0.0336 nM
- killing EC50 @ 72 hrs, A704, T-cell donor 110044049, E:T 3:1 [2]: 0.0524 nM
- killing EC50 @ 72 hrs, A704, T-cell donor 888668965, E:T 3:1 [2]: 0.0454 nM
- killing EC50 @ 72 hrs, VMRCRCW, T-cell donor 110040278, E:T 1:1 [2]: 0.243 nM
- killing EC50 @ 72 hrs, VMRCRCW, T-cell donor 110040278, E:T 1:3 [2]: 0.456 nM
- killing EC50 @ 72 hrs, VMRCRCW, T-cell donor 110040278, E:T 3:1 [2]: 0.0923 nM
- killing EC50 @ 72 hrs, VMRCRCW, T-cell donor 110042496, E:T 1:1 [2]: 0.465 nM
- killing EC50 @ 72 hrs, VMRCRCW, T-cell donor 110042496, E:T 3:1 [2]: 0.128 nM
- killing EC50 @ 72 hrs, VMRCRCW, T-cell donor 110042593, E:T 1:1 [2]: 0.225 nM
- killing EC50 @ 72 hrs, VMRCRCW, T-cell donor 110042593, E:T 3:1 [2]: 0.0795 nM
- killing EC50 @ 72 hrs, VMRCRCW, T-cell donor 110044049, E:T 1:1 [2]: 0.151 nM
- killing EC50 @ 72 hrs, VMRCRCW, T-cell donor 110044049, E:T 1:3 [2]: 0.226 nM
- killing EC50 @ 72 hrs, VMRCRCW, T-cell donor 110044049, E:T 3:1 [2]: 0.115 nM
- killing EC50 @ 72 hrs, VMRCRCW, T-cell donor 110048457, E:T 1:1 [2]: 0.177 nM
- killing EC50 @ 72 hrs, VMRCRCW, T-cell donor 110048457, E:T 1:3 [2]: 0.276 nM
- killing EC50 @ 72 hrs, VMRCRCW, T-cell donor 110048457, E:T 3:1 [2]: 0.372 nM
- killing EC50 @ 72 hrs, VMRCRCW, T-cell donor 888668965, E:T 1:1 [2]: 0.273 nM
- killing EC50 @ 72 hrs, VMRCRCW, T-cell donor 888668965, E:T 1:3 [2]: 0.469 nM
- killing EC50 @ 72 hrs, VMRCRCW, T-cell donor 888668965, E:T 3:1 [2]: 0.156 nM
- killing EC50 @ 120 hrs, A704, T-cell donor 110040278, E:T 1:1 [2]: 0.041 nM
- killing EC50 @ 120 hrs, A704, T-cell donor 110040278, E:T 1:3 [2]: 0.149 nM
- killing EC50 @ 120 hrs, A704, T-cell donor 110042496, E:T 1:1 [2]: 0.073 nM
- killing EC50 @ 120 hrs, A704, T-cell donor 110042496, E:T 1:3 [2]: 0.191 nM
- killing EC50 @ 120 hrs, A704, T-cell donor 110042593, E:T 1:1 [2]: 0.048 nM
- killing EC50 @ 120 hrs, A704, T-cell donor 110042593, E:T 1:3 [2]: 0.106 nM
- killing EC50 @ 120 hrs, A704, T-cell donor 110044049, E:T 1:1 [2]: 0.125 nM
- killing EC50 @ 120 hrs, A704, T-cell donor 888668965, E:T 1:3 [2]: 0.163 nM
- killing EC50 @ 120 hrs, VMRCRCW, T-cell donor 110040278, E:T 1:1 [2]: 0.264 nM
- killing EC50 @ 120 hrs, VMRCRCW, T-cell donor 110040278, E:T 1:3 [2]: 0.332 nM
- killing EC50 @ 120 hrs, VMRCRCW, T-cell donor 110042496, E:T 1:1 [2]: 0.454 nM
- killing EC50 @ 120 hrs, VMRCRCW, T-cell donor 110042496, E:T 1:3 [2]: 0.5 nM
- killing EC50 @ 120 hrs, VMRCRCW, T-cell donor 110042593, E:T 1:1 [2]: 0.218 nM
- killing EC50 @ 120 hrs, VMRCRCW, T-cell donor 110042593, E:T 1:3 [2]: 0.485 nM
- killing EC50 @ 120 hrs, VMRCRCW, T-cell donor 110044049, E:T 1:1 [2]: 0.216 nM
- killing EC50 @ 120 hrs, VMRCRCW, T-cell donor 110044049, E:T 1:3 [2]: 0.337 nM
- killing EC50 @ 120 hrs, VMRCRCW, T-cell donor 110048457, E:T 1:1 [2]: 0.21 nM
- killing EC50 @ 120 hrs, VMRCRCW, T-cell donor 110048457, E:T 1:3 [2]: 0.267 nM
- killing EC50 @ 120 hrs, VMRCRCW, T-cell donor 888668965, E:T 1:1 [2]: 0.345 nM
- killing EC50 @ 120 hrs, VMRCRCW, T-cell donor 888668965, E:T 1:3 [2]: 0.379 nM
- binding result [3]: no binding
- T-cell activation EC50, A704, donor 110040278, E:T 3:1 [4]: 0.008 nM
- T-cell activation EC50, A704, donor 110042496, E:T 3:1 [4]: 0.017 nM
- T-cell activation EC50, A704, donor 110042593, E:T 3:1 [4]: 0.013 nM
- T-cell activation EC50, A704, donor 110044049, E:T 3:1 [4]: 0.008 nM
- T-cell activation EC50, A704, donor 110048457, E:T 3:1 [4]: 0.01 nM
- T-cell activation EC50, A704, donor 888668965, E:T 3:1 [4]: 0.008 nM
- T-cell activation EC50, VMRCRCW, donor 110040278, E:T 3:1 [4]: 0.007 nM
- T-cell activation EC50, VMRCRCW, donor 110042496, E:T 3:1 [4]: 0.015 nM
- T-cell activation EC50, VMRCRCW, donor 110042593, E:T 3:1 [4]: 0.017 nM
- T-cell activation EC50, VMRCRCW, donor 110044049, E:T 3:1 [4]: 0.009 nM
- T-cell activation EC50, VMRCRCW, donor 110048457, E:T 3:1 [4]: 0.009 nM
- T-cell activation EC50, VMRCRCW, donor 888668965, E:T 3:1 [4]: 0.016 nM

— patent publication US20250136688A1 (Janssen / Centocor, published 2025)
